Measurements taken from patent CN114028561A (JIANGSU QYUNS BIOMEDICAL CO LTD, dated 2022).
Values belong to the binder of their own block, whether it stands above or below them.

Experiments:
食蟹猴TSLP = 食蟹猴TSLP (食蟹猴 (cynomolgus monkey), UniProt A0A7N9CAT7 29-159); test: cell-based or functional assay
[1] = target: T1, 人胸腺基质淋巴细胞生成素(Human Thymic Stromal Lymphopoietin, TSLP) (human, UniProt Q969D9 29-159); test: cell-based or functional assay
天然TSLP = test: cell-based or functional assay
[2] = target: T1, 人胸腺基质淋巴细胞生成素(Human Thymic Stromal …); test: SPR (Biacore T200), antibody captured on Protein A chip, human TSLP as analyte, 25℃, 1:1 model, mean of three runs

Sequence of 食蟹猴TSLP (A0A7N9CAT7 entry or part of it): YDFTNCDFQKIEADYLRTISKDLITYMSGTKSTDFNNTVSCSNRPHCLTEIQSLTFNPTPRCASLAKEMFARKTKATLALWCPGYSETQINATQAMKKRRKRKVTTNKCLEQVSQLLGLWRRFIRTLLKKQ

- IC50 of inhibition of cynomolgus TSLP-induced STAT5 phosphorylation in SW756-STAT5-Luciferase reporter cells (食蟹猴TSLP): 1.88 ng/mL
B1: Tezepelumab (antibody, V domains shown)
VH: QMQLVESGGGVVQPGRSLRLSCAASGFTFRTYGMHWVRQAPGKGLEWVAVIWYDGSNKHYADSVKGRFTITRDNSKNTLNLQMNSLRAEDTAVYYCARAPQWELVHEAFDIWGQGTMVTVSS
VL: SYVLTQPPSVSVAPGQTARITCGGNNLGSKSVHWYQQKPGQAPVLVVYDDSDRPSWIPERFSGSNSGNTATLTISRGEAGDEADYYCQVWDSSSDHVVFGGGTKLTVLG

- IC50 of inhibition of human TSLP-induced STAT5 phosphorylation in SW756-STAT5-Luciferase reporter cells [1]: 0.837 ng/mL
- IC50 of inhibition of human TSLP-induced TARC (CCL17) release from human PBMC [1]: 77.1 ng/mL
- IC50 of inhibition of human TSLP-induced TARC (CCL17) release from human whole blood [1]: 0.839 ng/mL
- IC50 of inhibition of natural TSLP-induced STAT5 phosphorylation in SW756-STAT5-Luciferase reporter cells (天然TSLP): 0.462 ng/mL
- IC50 of inhibition of cynomolgus TSLP-induced STAT5 phosphorylation in SW756-STAT5-Luciferase reporter cells (食蟹猴TSLP): 0.889 ng/mL
- Kd [2]: 0.0175 nM
- koff [2]: 2.99e-05 s⁻¹
- kon [2]: 1.74e+06 M⁻¹ s⁻¹
B2: QX008N(HZD8G2-57) (antibody, human IgG1, kappa, V domains shown)
VH: EVQLVESGGGLVQPGGSLRLSCAASGFSLSSYYMSWVRQAPGKGLEWVGFISYGGSAYHATWAQGRFTISKDNSKNTLYLQMNSLRAEDTAVYYCAREFRSMTYGAEWGIWGQGTLVTVSS
VL: AYQMTQSPSSVSASVGDRVTITCQASESIYDTLAWYQQKPGKAPKLLIYSASSLASGVPSRFSGSGSGTDFTLTISSLQPEDFATYYCQQGYTMPDVDKNPFGGGTKVEIKR
notes: also called 抗人TSLP单克隆抗体
